Measurements reported in publication PMC10695638.

Biological target: activated complement component C3 (C3b) (UniProt P01024)
Experiment: SPR

response (RU), median, C3b-chip 2: 17 RU
Substance: Factor B (natural protein)
